Reference: patent publication US20160031999A1 (CSL, published 2016)
Positions count from the first letter of the chain named. Each block holds one binder with its values, some of them ahead of it.

Legend:
[1] = target: T1, K66R mutant of soluble human IL-11Rα (SEQ ID NO: 96) (human, UniProt Q14626 23-318); assay: Biacore
T1 construct: also called K44R
T1 sequence: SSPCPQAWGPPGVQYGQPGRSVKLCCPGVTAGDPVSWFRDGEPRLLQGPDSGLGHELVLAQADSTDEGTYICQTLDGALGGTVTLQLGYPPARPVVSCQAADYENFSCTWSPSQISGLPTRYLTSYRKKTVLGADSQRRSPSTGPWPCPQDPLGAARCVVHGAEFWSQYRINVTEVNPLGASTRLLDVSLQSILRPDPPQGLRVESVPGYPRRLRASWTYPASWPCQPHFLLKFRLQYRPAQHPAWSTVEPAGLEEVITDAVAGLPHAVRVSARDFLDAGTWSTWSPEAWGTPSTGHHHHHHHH
Method: (§1) Anti human IgG Fc specific antibody was chemically immobilized on a CM5 chip to ˜9000 RU. Antibodies were captured at about 0.3-1 μg/ml for 120 seconds on 2 spots in each flow cell. Adjacent spots consisting of only anti human IgG were used as a reference. IL-11 receptors were injected over the captured antibodies and reference spots at 40, 10, 5 and 2.5 nM in duplicate. Blank injections of buffer only were also performed in duplicate. Injection was performed for 3 minutes and dissociation monitored for a further 5 minutes.
The K66R mutation led to a decrease in KD of just over twofold when compared to WT D1/2 (SEQ ID NO: 85) for antibodies 8E2 and 8D10, indicating some involvement of this residue in antibody binding.

[2] = target: T2, P65S mutant of soluble human IL-11Rα (SEQ ID NO: 97) (human, UniProt Q14626 23-318); assay: Biacore, antibody captured on anti-human IgG Fc, receptor injected; mean ± SE, N = 4
T2 sequence: T1 sequence with P43S, R44K
Method: (§2) Various point mutants of soluble forms of IL-11R were produced in which amino acids from mIL-11 were introduced into a soluble form of hIL-11 (SEQ ID NO: 85) (see Table 5 for positions of mutations relative to SEQ ID NO: 1 and for reference to the SEQ ID NO: of each polypeptide) and the binding of antibodies to those polypeptides or to polypeptides of SEQ ID NO: 3 or SEQ ID NO: 85 was determined using Biacore analysis or FACS.
as §1

[3] = target: T3, L101S mutant of soluble human IL-11Rα (SEQ ID NO: 98) (human, UniProt Q14626 23-318); assay: as above
T3 sequence: T1 sequence with R44K, L79S
Method: as §2, §1

[4] = target: T4, A178S mutant of soluble human IL-11Rα (SEQ ID NO: 99) (human, UniProt Q14626 23-318); assay: as above
T4 sequence: T1 sequence with R44K, A156S
Method: as §2, §1

[5] = target: T1, K66R mutant of soluble human IL-11Rα …; assay: as above
Method: as §2, §1

[6] = target: T5, V117E mutant of soluble human IL-11Rα (SEQ ID NO: 95) (human, UniProt Q14626 23-318); assay: Biacore, antibody captured; * indicates undetectable binding
T5 construct: also called V95E
T5 sequence: T1 sequence with R44K, V95E
Method: as §2, §1

[7] = target: T5, V117E mutant of soluble human IL-11Rα …; assay: Biacore, antibody captured on anti-human IgG Fc, receptor injected; mean ± SE, N = 4
Method: as §2, §1

fold change in KD compared to WT D1/2 (SEQ ID NO: 85) [1]: > 2 fold
Kd [2]: 0.67 nM
Kd [3]: 0.7 nM
Kd [4]: 0.6 nM
Kd [5]: 1.3 nM
binding result [6]: no binding
B1: antibody 8D10 (antibody, human IgG4 S228P, kappa, V domains shown)
VH: EVQLLESGGGLVQPGGSLRLSCAASGFTFSRYMMGWVRQAPGKGLEWVSSIVPSGGITIYADSVKGRFTISRDNSKNTLYLQMNSLRAEDTAVYYCARDHMGIVATDWGQGTLVTVSS
VL: DIQMTQSPSSLSASVGDRVTITCQASQDITNYLNWYLHKPGKAPKLLIYDASNLQTGVPSRFSGSGSGTDFTFTITSLQPEDFGTYYCQQYDTLHPSFGPGTTVDIKR

Kd [2]: 2.71 nM
Kd [3]: 2.98 nM
Kd [7]: 5.54 nM
Kd [4]: 2.63 nM
Kd [5]: 5.6 nM
B2: antibody 8E4 (antibody, human IgG4 S228P, lambda, V domains shown)
VH: EVQLLESGGGLVQPGGSLRLSCAASGFTFSWYFMGWVRQAPGKGLEWVSYIYPSGGSTGYADSVKGRFTISRDNSKNTLYLQMHSLRAEDTAVYYCARDEGYCSSTSCYFDAFDIWGQGTMVTVSS
VL: QSALTQPPSASGSPGQSVAISCTGTSSDVGGYNFVSWYQQHPGKAPKLLIYEVTKRPSGVPDRFSGSKAGNTASLTVSGLQAEDEADYYCSSYGGSNNAGVFGTGTKVTVLG
